Assay results reported in patent publication US11638741B2, “Composition for treating cancer or inhibiting cancer metastasis, including TFG or TFMG nanoparticles” (KYUNGPOOK NATIONAL UNIVERSITY INDUSTRY-ACADEMIC COOPERATION …, priority 2019, dated 2023).

B1: TFMG nanoparticles: a TRAP-ferritin monomer fragment-linker-PC-Gla fusion polypeptide; a polypeptide represented by SEQ ID NO: 2 (protein)
chain: MGGTTFLLRNASGHMSSQIRQNYSTDVEAAVNSLVNLYLQASYTYLSLGFYFDRDDVALEGVSHFFRELAEEKREGYERLLKMQNQRGGRIFLQDIKKPAEDEWGKTPDAMKAAMALEKKLNQALLDLHALGSARTDPHLCDFLETHFLDEEVKLIKKMGDHLTNLHRLGGGSEFVDGGGSGTSGPLGLAGANSFLEELRHSSLERECIEEICDFEEAKEIFQNVDDTLAFWSKHVLEHHHHHH
modifications: nanoparticle assembly; TFMG nanoparticle
B2: TFG nanoparticles: a TRAP-ferritin monomer fragment-PC-Gla fusion polypeptide; a polypeptide represented by SEQ ID NO: 1 (protein)
chain: MGGTTFLLRNASGHMSSQIRQNYSTDVEAAVNSLVNLYLQASYTYLSLGFYFDRDDVALEGVSHFFRELAEEKREGYERLLKMQNQRGGRIFLQDIKKPAEDEWGKTPDAMKAAMALEKKLNQALLDLHALGSARTDPHLCDFLETHFLDEEVKLIKKMGDHLTNLHRLGGGSEFVDGGGSGTSANSFLEELRHSSLERECIEEICDFEEAKEIFQNVDDTLAFWSKHVLEHHHHHH
modifications: nanoparticle assembly; TFG nanoparticle

Legend:
[1] = system: Lewis lung carcinoma (LLC); assay: Enhancement of cisplatin treatment effects in LLC allograft model (tumor size, survival); format: in vivo, C57BL/6J mice; details: for inhibiting the growth of the tumor: nanoparticles 100 nM (days 7, 10, 13) administered together with cisplatin 3 mg/kg (days 7, 12), on day 13
Experimental: In order to confirm whether the treatment effects of a conventionally used anticancer agent may be enhanced by normalizing abnormal blood vessels in a tumor, 100 nM of the TFG nanoparticles or TFMG nanoparticles was injected into the tail vein in a tumor animal model prepared in the same manner as in Example 2.1 on days 7, 10, and 13, cisplatin was injected at a concentration of 3 mg/kg on days 7 and 12, and the survival proportion was measured. An equal amount of phosphate buffered saline was injected into a negative control (Con), and an equal amount of cisplatin was injected alone into a positive control (Cis). Then, the tumor size was confirmed by obtaining tumors on days 9, 11, and 13. The results are illustrated in FIGS. 8 and 9.

[2] = system: blood vessels in a tumor (Lewis lung carcinoma (LLC)); assay: Structure and function of blood vessels in LLC tumor (IHC, pimonidazole hypoxia staining); format: in vivo, C57BL/6J mice; details: FIG. 7
Experimental: The structure and function of blood vessels in a tumor were analyzed using the tumor obtained in the same manner as in Example 2.1. More specifically, the obtained tumor was observed using a confocal microscope after fluorescent staining was performed through IHC analyses in the same manner as in Example 2.2. In order to measure the hypoxic state inside the tumor, 60 mg/kg of Hypoxyprobe-1™ (pimonidazole hydrochloride; PIMO, HPI) was administered through intraperitoneal injection, and 90 minutes later, the mouse was sacrificed and the tumor extracted. The extracted tumor was incised, and then stained with mouse anti-hypoxyprobe antibody (HPI), Alexa Fluor 488-, 568-, or 647-conjugated anti-mouse IgG (Invitrogen), and in order to measure the degree of leakage of blood vessels in the tumor, 40 mg/kg of Hoechst33258 (Invitrogen) was intravenously injected 5 minutes before the mouse was sacrificed. The prepared sample was obtained using a confocal microscope. The results are illustrated in FIGS. 6 and 7.

[3] = system: naturally occurring tumor model (MMTV-PyMT gene transplanted mice); assay: Inhibition of tumor proliferation in naturally occurring tumor model; format: in vivo; details: 100 nM into tail veins of 12-week-old mice; tumors obtained at 15 weeks
Experimental: More specifically, the sizes of all the distinct nodules of 12-week-old mice were measured, and the mice were grouped according to the sizes of the tumors. Then, 100 nM of the TFG nanoparticles or TFMG nanoparticles was injected into their tail veins, and the tumors were obtained when the mice became 15 weeks old. Then, the sizes of the tumors were measured in the same manner as in Example 2.1. The results are illustrated in FIG. 11.

[4] = system: naturally occurring tumor model (MMTV-PyMT gene transplanted mice); assay: Inhibition of tumor metastasis in naturally occurring tumor model; format: in vivo; details: compared to the control; 100 nM into tail veins at 12 weeks, confirmed at 15 weeks
Text: The results are illustrated in FIG. 12.

[5] = system: Lewis lung carcinoma (LLC); assay: Inhibition of tumor proliferation and survival in LLC allograft tumor animal model; format: in vivo, C57BL/6J mice; details: 100 nM into the tail vein on days 7, 10, 13; for survival proportion: FIG. 3; for tumor growth inhibition effect: compared with the control, tumor obtained on day 14
Experimental: In order to confirm the effects of the TFG nanoparticles or TFMG nanoparticles on the proliferation of cancer cells, after a tumor animal model was prepared by allografting 2 to 5×10^5 cells of Lewis lung carcinoma (LLC) as a murine lung cancer cell line into 6- to 7-week-old C57BL/6J mice, 100 nM of the TFG nanoparticles or TFMG nanoparticles was injected into the tail vein on days 7, 10, and 13, and then the size and survival proportion of the tumor were observed by obtaining the tumor on day 14. The tumor size was measured by substitution into the formula “0.5×A×B^2 (A: diameter in the longest direction, and B: diameter in a direction vertical to the longest direction).” An equal amount of phosphate buffered saline was administered to a control (Con). Animal care and all experimental procedures were performed in accordance with the laws and regulations for animal experiments. In order to show a significant difference between the corresponding groups in at least 3 of all the experimental result values, an ANOVA verification was performed, and only values with statistical significance of P-values <0.05 were shown as the average value±standard deviations (SD). The results are illustrated in FIGS. 1 to 3.

[6] = system: Lewis lung carcinoma (LLC); assay: Inhibition of tumor metastasis into lungs and inguinal lymph nodes, LLC allograft model after tumor removal surgery; format: in vivo, C57BL/6J mice; details: compared with the control; for lymph node metastasis inhibition rate: inguinal lymph nodes, IHC, day 28; for metastasis of the tumor into the lungs inhibited: tumor removal surgery day 14, metastasis confirmed day 28
Experimental: In order to confirm whether the TFG nanoparticles or TFMG nanoparticles affected the inhibition of metastasis of tumor, a tumor animal model was prepared in the same manner as in Example 2.1, and then the TFG nanoparticles or TFMG nanoparticles were injected. Then, a tumor removal surgery was performed on day 14, and it was confirmed whether the tumor metastasized into the lungs and the inguinal lymph nodes (LNs) on day 28. The metastasis into the inguinal lymph nodes was confirmed using immunohistochemistry (IHC) analyses. More specifically, the lymph nodes obtained to confirm cytokeratin positive tumor cells were fixed with 3.7% paraformaldehyde (PFA), and then dehydrated by treatment with a 10 to 40% sucrose solution at each step. Then, after the permeability of cells was increased by treatment with 0.3% Triton X-100 and a blocking process was performed using a bovine serum albumin (BSA), the lymph nodes were treated with rat anti-CD31 (BD Biosciences), mouse anti-α-SMA (Abcam), mouse anti-pimonidazole (HPI), mouse anti-cytokeratin II (Millipore), or rabbit anti-LYVE-1 (Angiobio) antibodies, and reacted at 4° C. for 16 hours. Then, unbound antibodies were washed using phosphate buffered saline, and then treated with Alexa Fluor 488-, 568-, or 647-conjugated anti-mouse IgG (Invitrogen), Alexa Fluor 594- or 647-conjugated anti-rat IgG (Invitrogen), Alexa Fluor 488-, 568-, or 647-conjugated anti-rabbit IgG (Invitrogen) antibodies that were secondary antibodies to a fluorescent marker, and reacted at room temperature for 1 hour. Then, finally, cellular nuclei were stained by treatment with Hoechst33258 (Invitrogen) for 1 minute, and then observed using a confocal microscope, and a fluorescence value was quantified using ImageJ. In order to show a significant difference between the corresponding groups in at least 3 of all the experimental result values, an ANOVA verification was performed, and only values with statistical significance of P-values <0.05 were shown as the average value±standard deviations (SD). The results are illustrated in FIGS. 4 to 5.

Row | Molecule | growth of the tumor inhibited ([1]; cisplatin administered alone, 3 mg/kg on days 7 and 12 (positive control)) [%] | blood vessels covered with α-smooth muscle actin positive pericytes [2] | number of nodules with tumors decreased [3] [%] | sizes of the tumors decreased [3] [%] | metastasis inhibition rate [4] [%] | survival proportion [5] | tumor growth inhibition effect [5] [%] | inhibiting the growth of the tumor [1] [%] | lymph node metastasis inhibition rate [6] [%] | metastasis of the tumor into the lungs inhibited [6] [%]
1 | N.N.[Cl][Pt][Cl] [cisplatin, reference compound] | 62.6 |  |  |  |  |  |  |  |  | 
2 | B1 |  | increased | 59 | 87.2 | 93.6 | increased | 27.0 | 94.3 | 78.1 | 86.4
3 | B2 |  | increased | 39.1 | 85 | 93.6 | increased | 28.2 | 96.2 | 76.9 | 83.4
